Here are results for 1 molecule from patent publication CN103319600A (MILITARY MEDICINE INST OF NANJING MILITARY REGION, dated 2013).

The target of this assay is T1, 阴性对照蛋白BSA (UniProt P02769 25-607).
T1 construct: Negative control protein
As to the kind of experiment: ELISA. For orientation: An ELISA detects its analyte on a solid surface through an enzyme-linked reagent.

T1 sequence (P02769 25-607 limits assumed): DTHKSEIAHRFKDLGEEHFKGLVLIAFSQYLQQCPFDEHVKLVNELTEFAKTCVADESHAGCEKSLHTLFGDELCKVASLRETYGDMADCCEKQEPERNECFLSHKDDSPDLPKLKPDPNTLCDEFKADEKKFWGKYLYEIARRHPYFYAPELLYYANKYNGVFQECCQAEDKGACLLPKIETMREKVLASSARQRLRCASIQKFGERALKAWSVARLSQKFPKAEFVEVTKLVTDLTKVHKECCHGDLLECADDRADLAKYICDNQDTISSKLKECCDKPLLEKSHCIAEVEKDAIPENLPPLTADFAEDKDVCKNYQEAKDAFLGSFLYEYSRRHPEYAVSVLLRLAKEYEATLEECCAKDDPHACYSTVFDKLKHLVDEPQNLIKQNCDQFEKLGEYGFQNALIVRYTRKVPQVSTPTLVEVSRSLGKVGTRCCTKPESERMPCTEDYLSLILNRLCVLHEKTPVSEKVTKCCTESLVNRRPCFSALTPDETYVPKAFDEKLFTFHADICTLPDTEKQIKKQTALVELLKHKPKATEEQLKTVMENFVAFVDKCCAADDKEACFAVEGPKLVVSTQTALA

B1: 人源抗TLR4抗体Fab (Fab, V domains shown)
VH: EVQLVESGGGLVKPGRSLRLSCAASGFTFSSYAMHWVRQAPGKGLEWVAVISYDGSNKYYADSVKGRFTISRDNSENTLYLQMNSLRAEDTAVYYCAAYSSSSWFDPWGQGTLVTVSP
VL: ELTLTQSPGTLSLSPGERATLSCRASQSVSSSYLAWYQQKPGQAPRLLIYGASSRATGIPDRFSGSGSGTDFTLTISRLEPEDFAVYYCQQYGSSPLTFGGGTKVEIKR
notes: also called 抗TLR4基因工程抗体Fab; 抗TLR4的Fab
B1: the binding result is “no binding”.
